Measured values published in article PMC8516343.

Experiments:
[1] = molecular target: βTrCP1 (UniProt Q9Y297); experiment: co-immunoprecipitation; conditions: reference: ATF4 wild type; sites S219
[2] = molecular target: βTrCP1 (UniProt Q9Y297); experiment: anti-Myc co-IP, anti-Flag blot; conditions: reference: Myc-ATF4-WT with Flag-CK1δ; sites S219

binding against the reference [1]	binding against the reference [2]	Substance
lost		ATF4 (from UniProt P18848) ATF4-S219A
	weaker	ATF4 (from UniProt P18848) Myc-ATF4-S219A with Flag-CK1δ
